Starred links: 1 amine or outer side, 2 acyl side, 3 side chain; linkers in the order of their positions; H or OH if unused. Non-standard residues stand in square brackets, D forms with d. Groups on a side chain read outwards from the residue. No end group written: not given here. *: point of attachment. C20 diacid = O=C(O)CCCCCCCCCCCCCCCCCCC(=O)*; C18 diacid = O=C(O)CCCCCCCCCCCCCCCCC(=O)*; γGlu = O=C(O)[C@H](CCC(=O)[*:2])N[*:1]; εLys = N[C@@H](CCCCN[*:1])C(=O)[*:2]; glu = not defined here; AEEA = NCCOCCOCC(=O)O; Aib = CC(C)(N)C(=O)O
T1: NPY2 receptor (human (printed as hNPY2R), UniProt P49146 1-381)
T1 sequence (looked up): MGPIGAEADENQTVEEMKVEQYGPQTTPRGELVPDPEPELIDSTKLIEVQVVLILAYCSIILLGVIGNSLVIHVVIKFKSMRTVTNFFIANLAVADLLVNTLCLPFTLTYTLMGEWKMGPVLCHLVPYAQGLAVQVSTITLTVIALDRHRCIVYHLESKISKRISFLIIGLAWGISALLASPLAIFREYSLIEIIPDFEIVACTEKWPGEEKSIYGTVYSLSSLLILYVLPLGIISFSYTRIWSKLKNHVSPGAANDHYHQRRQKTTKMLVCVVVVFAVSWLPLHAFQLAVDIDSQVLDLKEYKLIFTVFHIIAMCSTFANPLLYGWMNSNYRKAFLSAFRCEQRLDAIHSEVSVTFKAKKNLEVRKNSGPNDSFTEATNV

T2: GIP receptor (human (printed as hGIPR), UniProt P48546 22-466)
T2 sequence (looked up): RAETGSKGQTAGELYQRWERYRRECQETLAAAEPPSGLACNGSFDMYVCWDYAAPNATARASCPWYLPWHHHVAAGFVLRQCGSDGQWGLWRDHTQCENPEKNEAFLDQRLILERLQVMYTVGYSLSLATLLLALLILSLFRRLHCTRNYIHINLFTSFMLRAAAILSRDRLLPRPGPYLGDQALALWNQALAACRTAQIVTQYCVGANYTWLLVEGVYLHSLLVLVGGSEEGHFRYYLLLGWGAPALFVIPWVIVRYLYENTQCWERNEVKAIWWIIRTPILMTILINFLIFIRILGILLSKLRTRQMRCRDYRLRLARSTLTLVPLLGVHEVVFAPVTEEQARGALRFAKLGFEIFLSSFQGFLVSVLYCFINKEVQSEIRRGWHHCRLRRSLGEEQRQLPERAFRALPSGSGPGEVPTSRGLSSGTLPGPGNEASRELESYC


Key:
Assay in all cases: cell-based or functional assay
NPY2 receptor = target: T1, NPY2 receptor
GLP-1 receptor = GLP-1 receptor (human (printed as hGLP1R), UniProt P43220 24-463)
GIP receptor = target: T2, GIP receptor

| Binder | EC50 hNPY2R 0.5% hP (CreLuc) (NPY2 receptor) [nM] | EC50 hNPY2R 100% hP (CreLuc) (NPY2 receptor) [nM] | EC50 hGLP1R 0.5% hP (CreLuc) (GLP-1 receptor) [nM] | EC50 hGLP1R 100% hP (CreLuc) (GLP-1 receptor) [nM] | EC50 hGIPR 0.5% hP (CreLuc) (GIP receptor) [nM] | EC50 hGIPR 100% hP (CreLuc) (GIP receptor) [nM] |
| --- | --- | --- | --- | --- | --- | --- |
| YXEGTFTSDYSIXLEKQAQXAFVEWLIKGGPSSPASLRHYYNWLTRQRY (Aib at 2, 13, 20; K28 side chain carries C18DA-gGlu-gGlu-gGlu-gGlu-gGlu; C-terminal amide) [Compound 180] | 19.6 | 107 | 0.1 | 3.61 | 0.2 | 3.88 |
| YXEGTFTSDYSIXLEKQAQXAFVEWLIKGGPSSGASLRXYYNWLTRQRY (Aib at 2, 13, 20, 39; K28 side chain carries C20DA-gGlu-gGlu-gGlu-gGlu-gGlu-gGlu-eLys; C-terminal amide) [Compound 182] | 70.4 | 256 | 0.13 | 2.73 | 0.21 | 1.39 |
| YXEGTFTSDYSIXLEKQAQXAFVEWLIKGGPSSGASLRHYYNWLTRQRX (Aib at 2, 13, 20; Tle at 49; K28 side chain carries C20DA-gGlu-gGlu-gGlu-gGlu-gGlu-gGlu-eLys; C-terminal amide) [Compound 191] | > 99.9 | > 999 | 0.17 | 2.92 | 0.23 | 2 |
| YXEGTFTSDYSIXLEKQAQXAFVQWLIKGGPEEGASLRHYYNWLTRQRY (Aib at 2, 13, 20; K28 side chain carries C18DA-E-E-E-E-E-E-eLys (SEQ ID NO: 643); C-terminal amide) [Compound 196] | 25.2 | 152 | 0.2 | 13.6 | 0.25 | 3.68 |
| YXEGTFTSDYSIXLEKQAQXAFVEWLIKGGPSSGASLRHYYNWRTRQRY (Aib at 2, 13, 20; D-Arg at 44; K28 side chain carries C20DA-gGlu-gGlu-gGlu-gGlu-Glu-gGlu-eLys (so in the source); C-terminal amide) [Compound 190] | > 100 | > 1000 | 0.1 | 1.09 | 0.13 | 1.18 |
| YXEGTFTSDYSIXLEKQAQXAFVEWLIKGGPSSGALLRHYYNWLTRQRY (Aib at 2, 13, 20; K28 side chain carries C20DA-gGlu-gGlu-gGlu-gGlu-gGlu-gGlu-eLys; C-terminal amide) [Compound 197] | 42.6 | 158 | 0.31 | 6.06 | 0.43 | 3.61 |
| YXEGTFTSDYSIXLEKQAQXAFVEWLIKGGPSSGASLRHYYNLLTRQRY (Aib at 2, 13, 20; K28 side chain carries C20DA-gGlu-gGlu-gGlu-gGlu-gGlu-gGlu-eLys; C-terminal amide) [Compound 195] | 26.1 | 137 | 0.13 | 1.9 | 0.25 | 1.42 |
| YXEGTFTSDYSIXLEKQAQXAFVQWLIKGGPSEGASLRHYYNWLTRXRY (Aib at 2, 13, 20; bHGln (beta-homo-L-glutamine) at 47; K28 side chain carries C20DA-gGlu-gGlu-gGlu-gGlu-gGlu-gGlu-eLys; C-terminal amide) [Compound 186] | > 99.9 | 904 | 0.11 | 1.25 | 0.11 | 0.77 |
| YXEGTFTSDYSIXLEKQAQXAFVEWLIKGGPSSGASLRHYXNWLTRQRY (Aib at 2, 13, 20, 41; K28 side chain carries C20DA-gGlu-gGlu-gGlu-gGlu-gGlu-gGlu-eLys; C-terminal amide) [Compound 184] | 46 | 125 | 0.18 | 1.87 | 0.28 | 1.37 |
| Y[Aib]EGTFTSDYSI[Aib]LEKQAQ[Aib]EFVQWLIK([γGlu-γGlu-γGlu-γGlu-C20 diacid])GGPSEGASLRHYYNWLTRQRY-NH2 (also: TFA salt) [Compound 194] | 13.8 | 93.7 | 0.29 | 14.2 | 0.2 | 1.83 |
| Y[Aib]EGTFTSDYSI[Aib]LEKQAQ[Aib]AFVQWLIK([εLys-γGlu-γGlu-γGlu-γGlu-γGlu-C20 diacid])GGPSEYASLRHYYNWLTRQRY-NH2 (also: TFA salt) [Compound 189] | 8.03 | 45.8 | 0.21 | 10.2 | 0.31 | 5.06 |
| Y[Aib]EGTFTSDYSI[Aib]LEKQAQ[Aib]AFVQWLIK([AEEA-AEEA-Glu-Glu-Glu-C18 diacid])GGPEEGASLRHYYNWLTRQRY-NH2 (also: TFA salt) [Compound 188] | 16.9 | 105 | 0.15 | 5.93 | 0.12 | 1.16 |
| Y[Aib]EGTFTSDYSI[Aib]LEKQAQ[Aib]AFVEWLIKGGPSSYASLRHYYNWLTRQRY-NH2 (not fully specified (residue 28); also: TFA salt) [Compound 183] | 9.34 | 56.6 | 0.22 | 12.8 | 0.28 | 6.83 |
| Y[Aib]EGTFTSDYSI[Aib]LEKQAQ[Aib]EFVQWLIK([γGlu-γGlu-γGlu-γGlu-γGlu-γGlu-C20 diacid])GGPSEGASLRHYYNWLTRQRY-NH2 (also: TFA salt) [Compound 185] | 13.3 | 66.8 | 0.4 | 11 | 0.33 | 5.59 |
| Y[Aib]EGTFTSDYSI[Aib]LEK(Ac)QAQ[Aib]AFVEWLIK([εLys-glu-γGlu-γGlu-γGlu-γGlu-γGlu-C20 diacid])GGPSSGASLRHYYNWLTRQRY-NH2 (reading uncertain; also: TFA salt) [Compound 192] | 20.5 | 128 | 0.13 | 2.01 | 0.28 | 1.95 |
| Y[Aib]EGTFTSDYSI[Aib]LEKQAQ[Aib]AFVQWLIK([AEEA-AEEA-γGlu-γGlu-γGlu-γGlu-C20 diacid])GGPEEGASLRHYYNWLTRQRY-NH2 (also: TFA salt) [Compound 193] | 13.6 | 73.3 | 0.36 | 20.8 | 0.5 | 3.4 |
| Y[Aib]EGTFTSDYSI[Aib]LEEQAQ[Aib]AFVEWLIK([εLys-γGlu-γGlu-γGlu-γGlu-γGlu-C20 diacid])GGPSSGASLRHYYNWLTRQRY-NH2 (also: TFA salt) [Compound 181] | 16.5 | 102 | 0.14 | 3.23 | 0.16 | 1.23 |

From patent US20240247080A1, “GLP1/GIP/NPY2 RECEPTOR TRIPLE AGONISTS” (Boehringer Ingelheim International GmbH, priority 2022, published 2024)
